Source: US12723078 (University of Texas, dated 2026)

Assays:
[1] = target: T1, recombinant human LILRB1 protein (human, UniProt Q8NHL6 24-461); experiment: Octet RED96 (BLI), antibody on protein G biosensors, recombinant LILRB1 in solution, FIG. 2E (not Table 14)
T1 construct: ELISA and Octet methods say only 'recombinant LILRB1'; also called recombinant LILRB1; LILRB1 recombinant proteins

LILRA2 = target: T2, LILRA2 (human, UniProt Q8N149); experiment: ELISA
T2 construct: not the cell-surface form of MOLECULES; also called LILRA2 protein of the ELISA and Octet specificity tests
T2 sequence (Q8N149 24-449 limits assumed): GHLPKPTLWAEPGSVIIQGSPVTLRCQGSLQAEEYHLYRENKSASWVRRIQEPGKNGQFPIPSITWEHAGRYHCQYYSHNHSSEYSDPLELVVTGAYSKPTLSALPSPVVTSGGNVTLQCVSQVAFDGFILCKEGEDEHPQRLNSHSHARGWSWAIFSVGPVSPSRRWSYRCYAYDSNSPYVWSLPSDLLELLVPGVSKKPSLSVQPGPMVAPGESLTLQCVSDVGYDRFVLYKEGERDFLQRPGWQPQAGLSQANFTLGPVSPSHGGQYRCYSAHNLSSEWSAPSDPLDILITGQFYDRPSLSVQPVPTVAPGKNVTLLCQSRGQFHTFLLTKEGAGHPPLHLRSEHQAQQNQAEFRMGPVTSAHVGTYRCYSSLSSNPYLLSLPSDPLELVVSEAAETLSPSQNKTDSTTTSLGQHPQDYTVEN

LILRA1 = target: T3, LILRA1 (human, UniProt O75019); experiment: ELISA
T3 construct: not the cell-surface form of MOLECULES; also called LILRA1 protein of the ELISA and Octet specificity tests

LILRB4 = target: T4, LILRB4 (human, UniProt Q8NHJ6); experiment: ELISA
T4 construct: not the cell-surface form of MOLECULES; also called LILRB4 protein of the ELISA and Octet specificity tests

LILRA4 = target: T5, LILRA4 (human, UniProt P59901); experiment: ELISA
T5 construct: not the cell-surface form of MOLECULES; also called LILRA4 protein of the ELISA and Octet specificity tests
T5 sequence (P59901 24-446 limits assumed): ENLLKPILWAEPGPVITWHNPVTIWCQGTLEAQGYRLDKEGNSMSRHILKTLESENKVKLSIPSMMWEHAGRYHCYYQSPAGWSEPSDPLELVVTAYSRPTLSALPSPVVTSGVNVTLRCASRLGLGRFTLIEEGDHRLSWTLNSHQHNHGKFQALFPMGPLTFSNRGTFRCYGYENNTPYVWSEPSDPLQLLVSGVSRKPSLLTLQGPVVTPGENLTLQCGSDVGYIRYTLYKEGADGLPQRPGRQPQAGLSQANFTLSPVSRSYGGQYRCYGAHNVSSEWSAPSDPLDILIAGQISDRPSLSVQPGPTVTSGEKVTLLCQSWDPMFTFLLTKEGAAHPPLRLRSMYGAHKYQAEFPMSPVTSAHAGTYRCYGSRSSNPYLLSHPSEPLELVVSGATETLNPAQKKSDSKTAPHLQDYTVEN

LILRA3 = target: T6, LILRA3 (human, UniProt Q8N6C8); experiment: ELISA
T6 construct: not the cell-surface form of MOLECULES; also called LILRA3 protein of the ELISA and Octet specificity tests

LILRB5 = target: T7, LILRB5; experiment: ELISA
T7 construct: not the cell-surface form of MOLECULES; also called LILRB5 protein of the ELISA and Octet specificity tests; not shown: Fc or tag of the recombinant LILRB5 construct, if any

D2-Fc = target: T8, D2-Fc (human, UniProt Q8NHL6); experiment: ELISA on LILRB1 domain-Fc fusion proteins
T8 construct: D2 domain; also called LILRB1 D2-Fc

D23-Fc = target: T9, D23-Fc (human, UniProt Q8NHL6); experiment: ELISA on LILRB1 domain-Fc fusion proteins
T9 construct: D2-D3
T9 sequence (Q8NHL6 116-312 limits assumed): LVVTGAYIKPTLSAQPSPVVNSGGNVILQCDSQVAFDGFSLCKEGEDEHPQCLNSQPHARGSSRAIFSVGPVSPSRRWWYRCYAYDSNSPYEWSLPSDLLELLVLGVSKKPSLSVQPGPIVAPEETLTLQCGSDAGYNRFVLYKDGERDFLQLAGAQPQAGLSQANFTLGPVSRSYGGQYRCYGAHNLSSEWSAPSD

SR-Fc = target: T10, SR-Fc (human, UniProt Q8NHL6); experiment: ELISA on LILRB1 domain-Fc fusion proteins
T10 construct: stalk region
T10 sequence (Q8NHL6 410-461 limits assumed): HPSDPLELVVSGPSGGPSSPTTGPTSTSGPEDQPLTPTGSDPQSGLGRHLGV

D234SR-Fc = target: T11, D234SR-Fc (human, UniProt Q8NHL6); experiment: ELISA on LILRB1 domain-Fc fusion proteins
T11 construct: D2-D4 and stalk region

D4SR-Fc = target: T12, D4SR-Fc (human, UniProt Q8NHL6); experiment: ELISA on LILRB1 domain-Fc fusion proteins
T12 construct: D4 and stalk region

D3-Fc = target: T13, D3-Fc (human, UniProt Q8NHL6); experiment: ELISA on LILRB1 domain-Fc fusion proteins
T13 construct: D3 domain; also called LILRB1 D3-Fc
T13 sequence (Q8NHL6 222-312 limits assumed): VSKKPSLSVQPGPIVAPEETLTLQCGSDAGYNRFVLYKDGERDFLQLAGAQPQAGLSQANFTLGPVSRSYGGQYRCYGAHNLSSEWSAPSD

D1-Fc = target: T14, D1-Fc (human, UniProt Q8NHL6); experiment: ELISA on LILRB1 domain-Fc fusion proteins
T14 construct: D1 domain; also called LILRB1 D1-Fc
T14 sequence (Q8NHL6 27-115 limits assumed): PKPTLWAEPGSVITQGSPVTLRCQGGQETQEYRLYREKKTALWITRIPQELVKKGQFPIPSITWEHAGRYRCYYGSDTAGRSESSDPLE

D34SR-Fc = target: T15, D34SR-Fc (human, UniProt Q8NHL6); experiment: ELISA on LILRB1 domain-Fc fusion proteins
T15 construct: D3-D4 and stalk region
T15 sequence (Q8NHL6 222-461 limits assumed): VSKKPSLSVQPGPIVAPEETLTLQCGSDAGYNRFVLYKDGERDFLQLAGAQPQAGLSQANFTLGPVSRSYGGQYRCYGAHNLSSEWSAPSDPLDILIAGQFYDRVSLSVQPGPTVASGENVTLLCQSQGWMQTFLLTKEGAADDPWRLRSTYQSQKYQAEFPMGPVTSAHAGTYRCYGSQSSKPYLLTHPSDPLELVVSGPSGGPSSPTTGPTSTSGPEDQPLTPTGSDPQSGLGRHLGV

[2] = target: T16, LILRB1 expressed on cell surface (human, UniProt Q8NHL6 24-650); experiment: flow cytometry on LILR reporter cells, 0.5 µg/mL rabbit B1-176, anti-rabbit IgG PE
T16 construct: One entry is used for LILRB1 on reporter cells and on NK cells; also called LILRB1 NFAT-GFP reporter cell; LILRB1 reporter cells
T16 sequence (Q8NHL6 24-650 limits assumed): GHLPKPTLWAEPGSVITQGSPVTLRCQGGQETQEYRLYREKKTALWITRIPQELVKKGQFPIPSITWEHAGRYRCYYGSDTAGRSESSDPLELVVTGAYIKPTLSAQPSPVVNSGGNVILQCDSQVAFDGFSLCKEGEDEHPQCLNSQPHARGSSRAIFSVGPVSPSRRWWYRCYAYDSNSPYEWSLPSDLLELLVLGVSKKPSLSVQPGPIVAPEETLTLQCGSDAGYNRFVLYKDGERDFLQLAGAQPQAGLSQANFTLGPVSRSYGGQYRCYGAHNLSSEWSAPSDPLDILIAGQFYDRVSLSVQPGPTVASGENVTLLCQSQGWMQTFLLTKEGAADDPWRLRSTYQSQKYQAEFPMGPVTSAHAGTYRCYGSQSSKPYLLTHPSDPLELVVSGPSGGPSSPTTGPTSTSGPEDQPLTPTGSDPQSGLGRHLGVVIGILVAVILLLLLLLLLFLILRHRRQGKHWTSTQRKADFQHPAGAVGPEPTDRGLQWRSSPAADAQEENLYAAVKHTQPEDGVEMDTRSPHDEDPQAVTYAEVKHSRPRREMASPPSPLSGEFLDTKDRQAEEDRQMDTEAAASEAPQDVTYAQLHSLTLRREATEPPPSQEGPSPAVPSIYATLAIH

LILRB4 on reporter cells = target: T17, LILRB4 on reporter cells (UniProt Q8NHJ6 22-448); experiment: as above
T17 construct: whole, on cells

LILRA2 on reporter cells = target: T18, LILRA2 on reporter cells (UniProt Q8N149 24-483); experiment: as above
T18 construct: whole, on cells
T18 sequence (Q8N149 24-483): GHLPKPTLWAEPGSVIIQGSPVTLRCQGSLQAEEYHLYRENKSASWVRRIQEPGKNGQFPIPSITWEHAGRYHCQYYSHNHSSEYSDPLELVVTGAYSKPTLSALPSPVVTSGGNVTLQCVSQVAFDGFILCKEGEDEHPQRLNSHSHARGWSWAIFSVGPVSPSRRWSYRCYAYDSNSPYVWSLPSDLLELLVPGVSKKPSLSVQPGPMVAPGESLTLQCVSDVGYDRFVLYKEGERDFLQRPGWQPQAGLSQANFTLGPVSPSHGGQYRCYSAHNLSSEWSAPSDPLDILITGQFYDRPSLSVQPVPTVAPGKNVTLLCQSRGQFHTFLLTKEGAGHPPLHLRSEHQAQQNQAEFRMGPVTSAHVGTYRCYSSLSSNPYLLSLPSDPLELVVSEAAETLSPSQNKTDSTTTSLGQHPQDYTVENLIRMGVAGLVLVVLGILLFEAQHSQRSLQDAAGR

LILRA4 on reporter cells = target: T19, LILRA4 on reporter cells (UniProt P59901 24-499); experiment: as above
T19 construct: whole, on cells
T19 sequence (P59901 24-499): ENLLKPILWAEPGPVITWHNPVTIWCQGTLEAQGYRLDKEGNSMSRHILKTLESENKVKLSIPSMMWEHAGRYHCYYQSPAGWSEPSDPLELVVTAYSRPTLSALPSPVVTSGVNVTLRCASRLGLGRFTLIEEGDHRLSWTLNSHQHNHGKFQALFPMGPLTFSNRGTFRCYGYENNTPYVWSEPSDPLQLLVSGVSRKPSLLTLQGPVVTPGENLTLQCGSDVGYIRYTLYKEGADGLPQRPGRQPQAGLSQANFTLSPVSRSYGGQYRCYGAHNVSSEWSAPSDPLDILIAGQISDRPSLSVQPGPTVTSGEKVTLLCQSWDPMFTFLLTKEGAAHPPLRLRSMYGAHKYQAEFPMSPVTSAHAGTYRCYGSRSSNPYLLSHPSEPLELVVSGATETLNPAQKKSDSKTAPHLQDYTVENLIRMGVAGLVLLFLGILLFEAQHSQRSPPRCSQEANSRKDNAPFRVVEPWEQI

LILRA6 on reporter cells = target: T20, LILRA6 on reporter cells (UniProt Q6PI73 24-481); experiment: as above
T20 construct: whole, on cells
T20 sequence (Q6PI73 24-481): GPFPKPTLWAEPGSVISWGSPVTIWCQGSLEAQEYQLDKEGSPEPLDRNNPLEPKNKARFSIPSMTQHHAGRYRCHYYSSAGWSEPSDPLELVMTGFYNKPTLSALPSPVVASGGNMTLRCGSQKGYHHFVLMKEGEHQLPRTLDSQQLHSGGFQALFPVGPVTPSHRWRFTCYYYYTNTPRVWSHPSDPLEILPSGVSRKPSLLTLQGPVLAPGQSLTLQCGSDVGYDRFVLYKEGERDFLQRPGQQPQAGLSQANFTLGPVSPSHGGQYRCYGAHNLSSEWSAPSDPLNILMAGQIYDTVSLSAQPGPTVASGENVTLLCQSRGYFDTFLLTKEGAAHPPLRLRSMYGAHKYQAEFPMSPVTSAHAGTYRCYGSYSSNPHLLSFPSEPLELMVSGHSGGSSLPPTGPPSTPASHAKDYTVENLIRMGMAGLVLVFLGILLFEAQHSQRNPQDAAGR

LILRA5 on reporter cells = target: T21, LILRA5 on reporter cells (UniProt A6NI73 42-299); experiment: as above
T21 construct: whole, on cells
T21 sequence (A6NI73 42-299): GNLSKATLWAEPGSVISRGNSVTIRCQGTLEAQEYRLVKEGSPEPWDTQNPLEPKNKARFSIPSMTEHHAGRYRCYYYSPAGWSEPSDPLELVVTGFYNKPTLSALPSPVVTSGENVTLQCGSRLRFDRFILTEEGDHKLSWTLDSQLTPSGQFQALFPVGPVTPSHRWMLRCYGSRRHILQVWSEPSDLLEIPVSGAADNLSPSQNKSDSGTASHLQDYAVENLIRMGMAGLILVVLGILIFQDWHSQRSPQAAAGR

LILRA1 on reporter cells = target: T22, LILRA1 on reporter cells (UniProt O75019 17-489, limits assumed); experiment: as above
T22 construct: whole, on cells

LILRB5 on reporter cells = target: T23, LILRB5 on reporter cells (UniProt O75023 24-590, limits assumed); experiment: as above
T23 construct: whole, on cells

LILRA3 on reporter cells = target: T24, LILRA3 on reporter cells (UniProt Q8N6C8 24-439); experiment: as above
T24 construct: whole, on cells

LILRB2 on reporter cells = target: T25, LILRB2 on reporter cells (UniProt Q8N423 22-597); experiment: as above
T25 construct: whole, on cells; The construct is not described
T25 sequence (Q8N423 22-597): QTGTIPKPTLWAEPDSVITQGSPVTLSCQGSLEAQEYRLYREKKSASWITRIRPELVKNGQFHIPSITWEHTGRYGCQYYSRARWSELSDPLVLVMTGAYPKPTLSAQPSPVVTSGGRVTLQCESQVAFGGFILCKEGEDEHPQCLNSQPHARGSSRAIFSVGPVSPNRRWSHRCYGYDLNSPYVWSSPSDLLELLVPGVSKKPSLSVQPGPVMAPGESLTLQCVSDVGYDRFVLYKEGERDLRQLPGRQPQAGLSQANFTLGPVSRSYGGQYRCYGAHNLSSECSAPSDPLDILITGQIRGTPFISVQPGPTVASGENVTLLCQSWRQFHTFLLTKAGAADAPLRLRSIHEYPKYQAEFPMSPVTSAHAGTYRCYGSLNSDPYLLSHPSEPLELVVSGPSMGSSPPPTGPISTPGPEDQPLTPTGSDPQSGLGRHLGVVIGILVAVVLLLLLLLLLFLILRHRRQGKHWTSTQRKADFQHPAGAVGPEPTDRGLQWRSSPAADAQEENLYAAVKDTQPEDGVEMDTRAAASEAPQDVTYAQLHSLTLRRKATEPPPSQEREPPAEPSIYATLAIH

LILRB3 on reporter cells = target: T26, LILRB3 on reporter cells (UniProt O75022 24-631, limits assumed); experiment: as above
T26 construct: whole, on cells

[3] = target: T1, recombinant human LILRB1 protein; experiment: Octet RED96, LILRB1 at 100, 33.3, 11.1 and 3.7 nM

T1 sequence (Q8NHL6 24-461 limits assumed): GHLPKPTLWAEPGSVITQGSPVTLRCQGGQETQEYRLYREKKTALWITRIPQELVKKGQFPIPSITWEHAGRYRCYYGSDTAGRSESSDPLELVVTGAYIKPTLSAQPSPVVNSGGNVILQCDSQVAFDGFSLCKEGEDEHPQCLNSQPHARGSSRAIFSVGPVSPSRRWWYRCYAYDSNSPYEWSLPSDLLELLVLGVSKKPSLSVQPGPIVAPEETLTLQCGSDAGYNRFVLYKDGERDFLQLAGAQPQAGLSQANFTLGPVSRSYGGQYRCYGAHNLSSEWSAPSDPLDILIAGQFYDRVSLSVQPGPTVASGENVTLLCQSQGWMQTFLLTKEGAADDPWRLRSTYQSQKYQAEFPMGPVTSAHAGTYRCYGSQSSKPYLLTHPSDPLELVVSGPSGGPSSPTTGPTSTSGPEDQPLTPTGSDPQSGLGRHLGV

B1: B1-176 rabbit antibody (antibody, V domains shown)
VH: QSLEESEGGLVKPGGTLTLTCTASGFSFSSSYCMCWVRQAPGKGLELIACIYTDSSGATYYASWAKGRFTISKSSSTTITLQMTSLTAADTATYFCARGWDYEDPGYTDTTYFSLWGPGTLVTVSS
VL: ELDLTQTPSSVEAAVGGTVTIKCQASQTIYTNLAWYQQKPGQPPNLLIYAASTLASGVSSRFKGSGSGTEFTLTISDLECADAATYYCQSYYGSSTTGNGFGGGTEVEIK
notes: Full-length rabbit IgG, kappa; Variable genes were cloned into a rabbit IgG expression vector and expressed in Expi293F cells
- Kd [1]: ~0.01 nM
- binding result (LILRA2): no binding (tested: 10^3.0 ng/mL (1000 ng/mL))
- binding result (LILRA1): no binding (tested: 10^3.0 ng/mL (1000 ng/mL))
- binding result (LILRB4): no binding (tested: 10^3.0 ng/mL (1000 ng/mL))
- binding result (LILRA4): no binding (tested: 10^3.0 ng/mL (1000 ng/mL))
- binding result (LILRA3): no binding (tested: 10^3.0 ng/mL (1000 ng/mL))
- binding result (LILRB5): no binding (tested: 10^3.0 ng/mL (1000 ng/mL))
- binding result (D2-Fc): no binding (tested: not given)
- binding result (D23-Fc): no binding (tested: not given)
- binding result (SR-Fc): no binding (tested: not given)
- binding result (D234SR-Fc): no binding (tested: not given)
- binding result (D4SR-Fc): no binding (tested: not given)
- binding result (D3-Fc): no binding (tested: not given)
- binding result (D1-Fc): no binding (tested: not given)
- binding result (D34SR-Fc): no binding (tested: not given)
- percent of cells in the gate [2]: 99%
- percent of cells in the gate (LILRB4 on reporter cells): 0.18%
- percent of cells in the gate (LILRA2 on reporter cells): 0.11%
- percent of cells in the gate (LILRA4 on reporter cells): 0.074%
- percent of cells in the gate (LILRA6 on reporter cells): 0.12%
- percent of cells in the gate (LILRA5 on reporter cells): 0.1%
- percent of cells in the gate (LILRA1 on reporter cells): 0.12%
- percent of cells in the gate (LILRB5 on reporter cells): 0.29%
- percent of cells in the gate (LILRA3 on reporter cells): 0.1%
- percent of cells in the gate (LILRB2 on reporter cells): 0.68%
- percent of cells in the gate (LILRB3 on reporter cells): 0.07%
- Kd [3]: < 0.01 nM
